Patent publication US10800813 (Bicycle, dated 2020)
Numbered stars: 1 amine (or outer) side, 2 acyl side, 3 side chain; on linkers, the order of the positions; unused ones are H or OH. Bridge positions count the residues as written; N and C are the ends. Ends that are not written are not given here. TBMB = c1c(C[*:1])cc(C[*:3])cc1C[*:2]

Target: T1, biotinylated human plasma Kallikrein (human, UniProt P03952 20-638, biotinylated)
T1 construct: also called Biotinylated hPK
Assay: phage binding assay, signal:background
Description: Library transformant colonies, or selection output colonies, were picked and grown as individual cultures in 2TY broth containing selective antibiotic. The picked colonies were DNA-sequenced using a QIAgen PyroMark Q96 DNA sequencer to reveal the amino-acid substitution present in each clone, and were assayed for human plasma Kallikrein binding as follows. The phage-containing supernatant was harvested from the culture and phage were cyclised with tris bromomethyl benzene(TBMB) based on the methods of Heinis et al (Nature Chemical Biology vol. 5 pp 502-507 (2009)). The purified phage from this process were assayed for binding to biotinylated human plasma Kallikrein using a homogeneous plate-based binding assay; assay read-out measured on a BMG Labtech Pherastar FS plate reader. The quantitative binding data from duplicate assay samples was averaged (mean) and expressed as signal:background. […] The assay data was correlated with the peptide sequences.
Selections against human plasma Kallikrein were performed with this library in order to study the non-WPAR (SEQ ID NO: 18) determinants of Kallikrein binding, and to isolate the optimal WPAR (SEQ ID NO: 18)-containing peptide sequence.

T1 sequence (P03952 20-638 limits assumed): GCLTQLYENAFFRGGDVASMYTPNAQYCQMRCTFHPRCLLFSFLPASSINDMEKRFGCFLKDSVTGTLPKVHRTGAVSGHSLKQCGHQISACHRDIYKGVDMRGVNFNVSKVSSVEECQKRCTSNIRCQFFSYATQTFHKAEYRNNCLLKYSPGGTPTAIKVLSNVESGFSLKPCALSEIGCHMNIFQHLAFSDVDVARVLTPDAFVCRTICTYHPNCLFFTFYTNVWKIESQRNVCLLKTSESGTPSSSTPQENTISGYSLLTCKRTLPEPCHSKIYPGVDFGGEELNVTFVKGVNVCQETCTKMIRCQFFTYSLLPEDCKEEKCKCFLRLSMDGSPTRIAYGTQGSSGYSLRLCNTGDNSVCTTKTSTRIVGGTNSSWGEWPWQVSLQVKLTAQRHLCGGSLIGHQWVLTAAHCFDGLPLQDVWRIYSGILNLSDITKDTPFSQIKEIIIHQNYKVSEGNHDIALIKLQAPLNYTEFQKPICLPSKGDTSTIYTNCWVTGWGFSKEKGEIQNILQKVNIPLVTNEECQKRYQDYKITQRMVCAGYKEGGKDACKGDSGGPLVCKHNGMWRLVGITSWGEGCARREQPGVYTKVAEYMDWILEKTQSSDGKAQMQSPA

**Q.** Which Binding assay signal does the source give for CNWPARCTHQDLC (linker 1-7-13 via TBMB) [SEQ ID NO 115] here?
**A.** The Binding assay signal was 116.

**Q.** With CHWPARCTHQDLC (linker 1-7-13 via TBMB) [SEQ ID NO 116] as the binder, how does the Binding assay signal read?
**A.** The Binding assay signal was 110.

**Q.** Which Binding assay signal does the source give for CPWPARCTHQDLC (linker 1-7-13 via TBMB) [SEQ ID NO 117] here?
**A.** Its Binding assay signal is 107.

**Q.** CSWPARCTHADLC (linker 1-7-13 via TBMB) [SEQ ID NO 118] was tested. Which Binding assay signal did it give?
**A.** The Binding assay signal was 100.

**Q.** For CSWPARCTHDDLC (linker 1-7-13 via TBMB (inferred)) [SEQ ID NO 119], which Binding assay signal is on record?
**A.** Its Binding assay signal is 93.

**Q.** CAWPARCTHTDLC (linker 1-7-13 via TBMB (inferred)) [SEQ ID NO 120] was tested. Which Binding assay signal did it give?
**A.** The Binding assay signal was 92.

**Q.** For CQWPARCLHTDLC (linker 1-7-13 via TBMB (inferred)) [SEQ ID NO 121], which Binding assay signal is on record?
**A.** Its Binding assay signal is 91.

**Q.** CLWPARCTHQDLC (linker 1-7-13 via TBMB (inferred)) [SEQ ID NO 122] was tested. Which Binding assay signal did it give?
**A.** The Binding assay signal was 90.

**Q.** With CTWPARCTHTDLC (linker 1-7-13 via TBMB (inferred)) [SEQ ID NO 123] as the binder, how does the Binding assay signal read?
**A.** The Binding assay signal was 88.

**Q.** CHWPARCTHQELC (linker 1-7-13 via TBMB (inferred)) [SEQ ID NO 124] was tested. Which Binding assay signal did it give?
**A.** The Binding assay signal was 85.

**Q.** Which Binding assay signal does the source give for CAWPARCLHDDLC (linker 1-7-13 via TBMB (inferred)) [SEQ ID NO 125] here?
**A.** Its Binding assay signal is 84.

**Q.** CSWPARCLHTDLC (linker 1-7-13 via TBMB (inferred)) [SEQ ID NO 126] was tested. Which Binding assay signal did it give?
**A.** Its Binding assay signal is 83.

**Q.** CAWPARCTHVDLC (linker 1-7-13 via TBMB (inferred)) [SEQ ID NO 127] was tested. Which Binding assay signal did it give?
**A.** Its Binding assay signal is 82.

**Q.** Which Binding assay signal does the source give for CAWPARCTHTDFC (linker 1-7-13 via TBMB (inferred)) [SEQ ID NO 128] here?
**A.** The Binding assay signal was 80.

**Q.** For CMWPARCMHQDLC (linker 1-7-13 via TBMB (inferred)) [SEQ ID NO 129], which Binding assay signal is on record?
**A.** Its Binding assay signal is 79.

**Q.** Which Binding assay signal does the source give for CAWPARCTHADLC (linker 1-7-13 via TBMB (inferred)) [SEQ ID NO 130] here?
**A.** The Binding assay signal was 79.

**Q.** For CQWPARCTHSDLC (linker 1-7-13 via TBMB (inferred)) [SEQ ID NO 132], which Binding assay signal is on record?
**A.** Its Binding assay signal is 74.

**Q.** With CLWPARCTHADLC (linker 1-7-13 via TBMB (inferred)) [SEQ ID NO 133] as the binder, how does the Binding assay signal read?
**A.** Its Binding assay signal is 74.

**Q.** With CRWPARCTHQDLC (linker 1-7-13 via TBMB (inferred)) [SEQ ID NO 134] as the binder, how does the Binding assay signal read?
**A.** The Binding assay signal was 73.

**Q.** How did the Binding assay signal turn out when CSWPARCTHSHLC (linker 1-7-13 via TBMB (inferred)) [SEQ ID NO 137] was run?
**A.** The Binding assay signal was 72.

**Q.** How did the Binding assay signal turn out when CVWPARCTHQDLC (linker 1-7-13 via TBMB (inferred)) [SEQ ID NO 138] was run?
**A.** Its Binding assay signal is 71.

**Q.** How did the Binding assay signal turn out when CTWPARCTHADLC (linker 1-7-13 via TBMB (inferred)) [SEQ ID NO 139] was run?
**A.** The Binding assay signal was 71.
